These results are taken from patent publication US20180155451A1 (published 2018).

The target in assay [1] is T1, FcγRIIa H (human, UniProt P12318 34-217).
T1 construct: extracellular domain; also called FcgRIIa H type; 2aH
T1 sequence (looked up): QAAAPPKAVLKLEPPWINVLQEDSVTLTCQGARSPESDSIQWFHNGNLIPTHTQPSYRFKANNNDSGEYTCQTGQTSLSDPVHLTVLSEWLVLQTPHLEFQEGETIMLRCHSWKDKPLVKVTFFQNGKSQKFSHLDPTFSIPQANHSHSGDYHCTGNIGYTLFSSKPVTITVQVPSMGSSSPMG
Briefly: SPR (Biacore), antibody captured on antigen-peptide chip, FcγR as analyte; binding relative to GpH7-A5/GpH7-B3/GpL16-k0 = 100. A general note: SPR reads the build-up and loss of mass on a sensor chip optically.

Assay [2] addresses T2, FcγRIIb (human, UniProt P31994 43-217).
T2 construct: extracellular domain; also called FcgRIIb; 2b
T2 sequence (looked up): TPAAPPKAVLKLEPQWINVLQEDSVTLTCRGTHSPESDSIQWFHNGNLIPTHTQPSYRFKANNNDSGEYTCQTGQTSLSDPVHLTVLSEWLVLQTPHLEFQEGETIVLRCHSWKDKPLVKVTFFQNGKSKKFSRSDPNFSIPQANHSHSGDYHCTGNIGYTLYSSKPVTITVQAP
The assay is described as above.

Assay [3] deals with T3, FcγRIIIa extracellular domain with C-terminal His tag (human, UniProt P08637 17-208).
T3 construct: extracellular domain; also called FcgRIIIa; 3a; not shown: His tag at the C terminus
Briefly: SPR (Biacore), antibody captured via antigen peptide, FcγR as analyte; binding relative to GpH7-A5/GpH7-B3/GpL16-k0 = 100.

Assay [4] deals with T4, FcγRIIb extracellular domain with C-terminal His tag (human, UniProt P31994 43-217).
T4 construct: extracellular domain; also called FcgRIIb; 2b; not shown: His tag at the C terminus
T4 sequence (looked up): T2 sequence (looked up)
The description is as above.

Assay [5] addresses T5, FcγRIa (human, UniProt P12314 16-292).
T5 construct: extracellular domain; also called FcgRI; 1a; not shown: His tag at the C terminus
As to the kind of experiment: SPR (Biacore), antibody captured, FcγR as analyte; binding as % of GpH7-A5/GpH7-B3/GpL16-k0.

The target in assay [6] is T6, FcγRIIb (human, UniProt P31994 43-217).
T6 construct: extracellular domain; also called FcgRIIb; 2b; not shown: His tag at the C terminus
T6 sequence (looked up): T2 sequence (looked up)
The assay is described as above.

T5 sequence (P12314 16-292): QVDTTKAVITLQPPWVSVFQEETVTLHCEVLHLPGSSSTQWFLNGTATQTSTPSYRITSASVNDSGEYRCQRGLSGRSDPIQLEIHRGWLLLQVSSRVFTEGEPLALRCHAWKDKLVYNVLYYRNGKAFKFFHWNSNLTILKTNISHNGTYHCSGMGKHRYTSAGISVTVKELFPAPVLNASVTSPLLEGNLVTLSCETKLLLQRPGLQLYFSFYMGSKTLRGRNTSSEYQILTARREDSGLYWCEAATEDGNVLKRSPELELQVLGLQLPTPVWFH
T3 sequence (P08637 17-208): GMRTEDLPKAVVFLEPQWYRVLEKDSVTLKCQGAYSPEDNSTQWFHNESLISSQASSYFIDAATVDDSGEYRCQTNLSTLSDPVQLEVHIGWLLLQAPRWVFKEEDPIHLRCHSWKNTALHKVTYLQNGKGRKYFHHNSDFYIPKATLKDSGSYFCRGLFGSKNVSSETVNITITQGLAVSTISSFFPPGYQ

B1: GpH7-A5/GpH7-B3 variant E333_04F/GpL16-k0 (antibody, human IgG1, kappa)
heavy 1: not shown
heavy 2: not shown
light: DIVMTQSPLSLPVTPGEPASISCQASESLVHSNRNTYLHWYLQKPGQSPQLLIYKVSNRFSGVPDRFSGSGSGTDFTLKISRVEAEDVGVYYCSQNTHVPPTFGQGTKVEIERTVAAPSVFIFPPSDEQLKSGTASVVCLLNNFYPREAKVQWKVDNALQSGNSQESVTEQDSKDSTYSLSSTLTLSKADYEKHKVYACEVTHQGLSSPVTKSFNRGEC
notes: Heterodimerized anti-glypican-3 IgG1; substitution in only one H chain (the GpH7-B3 chain); also called He Ab
Turning to B1, in assay [1], the He/Con_2aH is 102 % of HeCon Ab. Moreover, the He/Con_2b in assay [2] was 94.6 % of HeCon Ab.

B2: GpH7-A5/GpH7-B3 variant I336_14T/GpL16-k0 (antibody, human IgG1, kappa)
heavy 1: not shown
heavy 2: not shown
light: B1 light
notes: He Ab: the mutation stands only in the GpH7-B3-derived H chain; also called He Ab I336T
On to B2, for which the He/Con_3a in assay [3] is 108 relative (control = 100). Also, the He/Con_2b in assay [4] was 89.5 relative (control = 100).

B3: GpH7-A5/GpH7-B3 variant S337_04F/GpL16-k0 (antibody, human IgG1, kappa)
heavy 1: not shown
heavy 2: not shown
light: B1 light
notes: He Ab: the mutation stands only in the GpH7-B3-derived H chain; also called He Ab S337F
Regarding B3, the He/Con_3a in assay [3] is 101 relative (control = 100). In addition, the He/Con_2b in assay [4] is 97.8 relative (control = 100).

B4: GpH7-A5/GpH7-B3 variant I336_18N/GpL16-k0 (antibody, human IgG1, kappa)
heavy 1: not shown
heavy 2: not shown
light: B1 light
notes: as for B1
As for B4, the He/Con_2aH in assay [1] is 103 % of HeCon Ab. In addition, the He/Con_2b in assay [2] is 97.6 % of HeCon Ab.

B5: GpH7-A5/GpH7-B3 variant I336_18N/GpL16-k0 (antibody, human IgG1, kappa)
heavy 1: not shown
heavy 2: not shown
light: B1 light
notes: He Ab: the mutation stands only in the GpH7-B3-derived H chain; also called He Ab I336N
Consider B5, for which the He/Con_3a in assay [3] is 104 relative (control = 100). Moreover, in assay [4], the He/Con_2b was 97.6 relative (control = 100).

B6: GpH7-A5/GpH7-B3 variant I332_02A/GpL16-k0 (antibody, human IgG1, kappa)
heavy 1: not shown
heavy 2: not shown
light: B1 light
notes: heterodimerized IgG1; alteration in the GpH7-B3 H chain only; also called He Ab
Regarding B6, the He/Con_1a in assay [5] is 88.3 % of control. In assay [6], the He/Con_2b is 103 % of control.

B7: GpH7-A5/GpH7-B3 variant I336_10E/GpL16-k0 (antibody, human IgG1, kappa)
heavy 1: not shown
heavy 2: not shown
light: B1 light
notes: as for B1
For B7, in assay [1], the He/Con_2aH is 102 % of HeCon Ab. The He/Con_2b in assay [2] is 89.8 % of HeCon Ab.

B8: GpH7-A5/GpH7-B3 variant T335_06M/GpL16-k0 (antibody, human IgG1, kappa)
heavy 1: not shown
heavy 2: not shown
light: B1 light
notes: He Ab: the mutation stands only in the GpH7-B3-derived H chain; also called He Ab T335M
On to B8, for which the He/Con_3a in assay [3] was 102 relative (control = 100). Besides, the He/Con_2b in assay [4] is 99.4 relative (control = 100).

B9: GpH7-A5/GpH7-B3 variant K334_09D/GpL16-k0 (antibody, human IgG1, kappa)
heavy 1: not shown
heavy 2: not shown
light: B1 light
notes: He Ab: the mutation stands only in the GpH7-B3-derived H chain; also called He Ab K334D
Regarding B9, the He/Con_3a in assay [3] is 160 relative (control = 100). Also, the He/Con_2b in assay [4] was 94.8 relative (control = 100).

B10: GpH7-A5/GpH7-B3 variant K334_01G/GpL16-k0 (antibody, human IgG1, kappa)
heavy 1: not shown
heavy 2: not shown
light: B1 light
notes: He Ab: the mutation stands only in the GpH7-B3-derived H chain; also called He Ab K334G
On to B10, for which the He/Con_3a in assay [3] was 121 relative (control = 100). Besides, in assay [4], the He/Con_2b was 92.5 relative (control = 100).

B11: GpH7-A5/GpH7-B3 variant T335_06M/GpL16-k0 (antibody, human IgG1, kappa)
heavy 1: not shown
heavy 2: not shown
light: B1 light
notes: as for B1
Consider B11, for which the He/Con_2aH in assay [1] was 103 % of HeCon Ab. In assay [2], the He/Con_2b was 99.4 % of HeCon Ab.

B12: GpH7-A5/GpH7-B3 variant S337_01G/GpL16-k0 (antibody, human IgG1, kappa)
heavy 1: not shown
heavy 2: not shown
light: B1 light
notes: He Ab: the mutation stands only in the GpH7-B3-derived H chain; also called He Ab S337G
B12: the He/Con_3a in assay [3] was 102 relative (control = 100). Moreover, the He/Con_2b in assay [4] is 92 relative (control = 100).

B13: GpH7-A5/GpH7-B3 variant I336_13S/GpL16-k0 (antibody, human IgG1, kappa)
heavy 1: not shown
heavy 2: not shown
light: B1 light
notes: He Ab: the mutation stands only in the GpH7-B3-derived H chain; also called He Ab I336S
With B13, the He/Con_3a in assay [3] is 102 relative (control = 100). Also, the He/Con_2b in assay [4] is 83.7 relative (control = 100).

B14: GpH7-A5/GpH7-B3 variant I332_15Y/GpL16-k0 (antibody, human IgG1, kappa)
heavy 1: not shown
heavy 2: not shown
light: B1 light
notes: as for B6
On to B14, for which the He/Con_1a in assay [5] is 88.8 % of control. In addition, the He/Con_2b in assay [6] is 101 % of control.

B15: GpH7-A5/GpH7-B3 variant E333_13S/GpL16-k0 (antibody, human IgG1, kappa)
heavy 1: not shown
heavy 2: not shown
light: B1 light
notes: as for B1
For B15, in assay [1], the He/Con_2aH is 101 % of HeCon Ab. The He/Con_2b in assay [2] is 81.8 % of HeCon Ab.

B16: GpH7-A5/GpH7-B3 variant P331_20W/GpL16-k0 (antibody, human IgG1, kappa)
heavy 1: not shown
heavy 2: not shown
light: B1 light
notes: as for B6
As for B16, in assay [5], the He/Con_1a was 94.5 % of control. The He/Con_2b in assay [6] is 111 % of control.

B17: GpH7-A5/GpH7-B3 variant T335_02A/GpL16-k0 (antibody, human IgG1, kappa)
heavy 1: not shown
heavy 2: not shown
light: B1 light
notes: as for B1
For the molecule B17, the He/Con_2aH in assay [1] is 101 % of HeCon Ab. Also, the He/Con_2b in assay [2] was 94 % of HeCon Ab.

B18: GpH7-A5/GpH7-B3 variant E333_14T/GpL16-k0 (antibody, human IgG1, kappa)
heavy 1: not shown
heavy 2: not shown
light: B1 light
notes: as for B1
In the case of B18, the He/Con_2aH in assay [1] is 100 % of HeCon Ab. For the same molecule, in assay [2], the He/Con_2b was 86.1 % of HeCon Ab.

B19: GpH7-A5/GpH7-B3 variant I332_04F/GpL16-k0 (antibody, human IgG1, kappa)
heavy 1: not shown
heavy 2: not shown
light: B1 light
notes: as for B6
On to B19, for which the He/Con_1a in assay [5] is 93.6 % of control. Moreover, in assay [6], the He/Con_2b was 104 % of control.

B20: GpH7-A5/GpH7-B3 variant E333_09D/GpL16-k0 (antibody, human IgG1, kappa)
heavy 1: not shown
heavy 2: not shown
light: B1 light
notes: as for B1
Take B20: the He/Con_2aH in assay [1] is 103 % of HeCon Ab. Further, the He/Con_2b in assay [2] is 94.3 % of HeCon Ab.

B21: GpH7-A5/GpH7-B3 variant T335_01G/GpL16-k0 (antibody, human IgG1, kappa)
heavy 1: not shown
heavy 2: not shown
light: B1 light
notes: as for B1
Regarding B21, the He/Con_2aH in assay [1] is 103 % of HeCon Ab. Also, the He/Con_2b in assay [2] was 96.7 % of HeCon Ab.

B22: GpH7-A5/GpH7-B3 variant I332_06M/GpL16-k0 (antibody, human IgG1, kappa)
heavy 1: not shown
heavy 2: not shown
light: B1 light
notes: as for B6
As for B22, the He/Con_1a in assay [5] is 92.3 % of control. Besides, the He/Con_2b in assay [6] is 105 % of control.

B23: GpH7-A5/GpH7-B3 variant E333_08L/GpL16-k0 (antibody, human IgG1, kappa)
heavy 1: not shown
heavy 2: not shown
light: B1 light
notes: as for B1
Take B23: the He/Con_2aH in assay [1] was 102 % of HeCon Ab. For the same molecule, the He/Con_2b in assay [2] was 95 % of HeCon Ab.

B24: GpH7-A5/GpH7-B3 variant I336_03V/GpL16-k0 (antibody, human IgG1, kappa)
heavy 1: not shown
heavy 2: not shown
light: B1 light
notes: as for B1
For the molecule B24, in assay [1], the He/Con_2aH is 102 % of HeCon Ab. Further, the He/Con_2b in assay [2] is 90.3 % of HeCon Ab.

B25: GpH7-A5/GpH7-B3 variant I336_10E/GpL16-k0 (antibody, human IgG1, kappa)
heavy 1: not shown
heavy 2: not shown
light: B1 light
notes: He Ab: the mutation stands only in the GpH7-B3-derived H chain; also called He Ab I336E
In the case of B25, the He/Con_3a in assay [3] is 119 relative (control = 100). The He/Con_2b in assay [4] is 89.8 relative (control = 100).

B26: GpH7-A5/GpH7-B3 variant I332_14T/GpL16-k0 (antibody, human IgG1, kappa)
heavy 1: not shown
heavy 2: not shown
light: B1 light
notes: as for B6
With B26, the He/Con_1a in assay [5] is 91.8 % of control. In addition, in assay [6], the He/Con_2b is 106 % of control.

B27: GpH7-A5/GpH7-B3 variant T335_05P/GpL16-k0 (antibody, human IgG1, kappa)
heavy 1: not shown
heavy 2: not shown
light: B1 light
notes: He Ab: the mutation stands only in the GpH7-B3-derived H chain; also called He Ab T335P
Take B27: in assay [3], the He/Con_3a is 105 relative (control = 100). In assay [4], the He/Con_2b is 99.9 relative (control = 100).

B28: GpH7-A5/GpH7-B3 variant T335_05P/GpL16-k0 (antibody, human IgG1, kappa)
heavy 1: not shown
heavy 2: not shown
light: B1 light
notes: as for B1
For the molecule B28, in assay [1], the He/Con_2aH is 108 % of HeCon Ab. Besides, in assay [2], the He/Con_2b is 99.9 % of HeCon Ab.
